For experiment [1], the target named is c-erbB-2 ECD with a Ser-Gly-His6 C-terminal fusion (UniProt P04626). Nature of the experiment: SPR (BIAcore). (In general: Surface plasmon resonance follows binding to a sensor surface in real time, without labels.)
Experiment [2] has the same target. The experiment can be described thus: from SPR (BIAcore) Kd values.
Experiment [3] addresses T1, c-erbB-2 ECD with a Ser-Gly-His6 C-terminal fusion (UniProt P04626 23-652).
T1 construct: extracellular domain; expressed from CHO cells, IMAC purified; coupled to a CM5 chip, adsorbed to polystyrene, or biotinylated and captured on avidin; also called c-erbB-2 extracellular domain; biotinylated c-erbB-2 ECD
The experiment can be described thus: SPR (BIAcore).

The target in experiment [4] is T1, c-erbB-2 ECD with a Ser-Gly-His6 …. Nature of the experiment: SPR (BIAcore). The source holds these as a separate data set.
The target in experiment [5] is T2, c-erbB-2 expressed on cells (SK-OV-3, SK-BR-3) (UniProt P04626 23-1255, limits assumed).
T2 construct: whole, on cells; also called native c-erbB-2 expressed on cells
Nature of the experiment: FACS, biotinylated sFv on SK-OV-3 cells. In general terms: Flow cytometry measures light scatter and fluorescence of single cells or particles in a stream.

The target of experiment [6] is T1, c-erbB-2 ECD with a Ser-Gly-His6 …. The experiment can be described thus: SPR (BIAcore); clone eluted with 1 µM c-erbB-2 ECD.

Where a chain is given by its changes, count along the chain named.

B1: C6-B47L1 (scFv, part only; not given: linker and VL, part only)
scFv, part: QVQLLQSGAELKKPGSLKISCKGSGYSFTSWIAWVRQMPGKGLEYGLIYPGDSDTKYSPSQGQVTISVDKSVSTALQWSSLKPSDSAVYFARHDVGYCHDVGYCTDRSCAKWPYFQHTVS
As usually defined, the Kd is the constant that tells how readily two partners part at equilibrium. A lower Kd goes with higher affinity. Broadly, the koff is the first-order rate constant of dissociation. The low end stands for a long-lived complex, the high end for a short-lived complex. As a reminder, the kon is the rate constant with which the complex forms. Read a low kon as slow association. B1: in experiment [1], the Kd is 0.6 nM, the Kd (C6.5)/Kd (mut) turned out to be 27, the Kd (parent)/Kd (mut) was 0.18 and the koff amounted to 0.00018 s⁻¹. The same molecule had a kon in experiment [1] of 300000 M⁻¹ s⁻¹. For the same molecule, the ΔΔGI in experiment [2] worked out at 0.45 kcal/mol.

B2: C6ML3-9 (scFv)
scFv: QVQLLQSGAELKKPGESLKISCKGSGYSFTSYWIAWVRQMPGKGLEYMGLIYPGDSDTKYSPSFQGQVTISVDKSVSTAYLQWSSLKPSDSAVYFCARHDVGYCSSSNCAKWPEYFQHWGQGTLVTVSSGGGGSGGGGSGGGGSQSVLTQPPSVSAAPGQKVTISCSGSSSNIGNNYVSWYQQLPGTAPKLLIYGHTNRPAGVPDRFSGSKSGTSASLAISGFRSEDEADYYCASWDYTLSGWVFGGGTKLTVLG
notes: C6.5 with this VL CDR3; C-terminal myc and His6 tags; parent of the VH CDR3 libraries; also called C6ML3-9 (wt); wt C6ML3-9
Take B2: the “fold increase in affinity vs wild-type sFv (C6.5)” value in experiment [3] amounted to 16 fold. In experiment [4], this molecule yielded a kon of 610000 M⁻¹ s⁻¹. In experiment [5], the “half life (t1/2) on the cell surface” value was found to be 11 min.

B3: C6ML3-5 (scFv)
scFv: B2 scFv with S235A, T239S
notes: C6.5 with this VL CDR3; C-terminal myc and His6 tags
In turn, B3 gave an on-rate (kon) in experiment [4] of 590000 M⁻¹ s⁻¹. In experiment [6], the koff came out at 0.0019 s⁻¹.

B4: C6MH3-B1 (scFv)
scFv: B2 scFv with S105T, S106D, S107R, N108T
notes: C6ML3-9 with this VH CDR3; C-terminal His6; also called C6MNH3-B1
For the molecule B4, the “half life (t1/2) on the cell surface” value in experiment [5] stood at 102 min.

The record behind these values is US20060287509A1 (University of California, published 2006).
